Series [1] has as its system C[C@H](NC(=O)CCC(=O)O)C(=O)N[C@@H](C)C(=O)N1CCC[C@H]1C(=O)N[C@@H](Cc1ccccc1)C(=O)Nc1ccc([N+](=O)[O-])cc1. The experiment in a line: purified protein, by the assay type. The following applies: other: substrate AAPF, 0 °C, pH 8.0.
Another series concerns the target cyclosporin A (CsA). The experiment in a line: ITC.
The test system of series [2] is C[C@H](NC(=O)CCC(=O)O)C(=O)N[C@@H](C)C(=O)N1CCC[C@H]1C(=O)N[C@@H](Cc1ccccc1)C(=O)Nc1ccc([N+](=O)[O-])cc1. Nature of the series: purified protein, by the assay type. The series is classed as biochemical, Toxoplasma gondii. The conditions noted are these: other: substrate AAPF, 0 °C, pH 8.0.
Description: A trans-isomer is formed by Cyp, which is selectively cleaved by chymotrypsin, producing 4-nitroaniline, a yellow-colored product that can be measured spectrophotometrically.
The assay was performed in 50 mM Hepes, pH 8, and 100 mM NaCl at 0 °C. […] Once the temperature reached 0 °C, chymotrypsin solution, dissolved in HCl 1 mM, was added at 1.8 mg mL^–1 to start the reaction.
Successively, Cyp was added in large excess to enhance the cis-to-trans isomerization. The cis population was estimated by the difference between the final and the initial absorbance.
For all of the experiments, the slope of the catalyzed reaction was corrected for the spontaneous thermal cis–trans isomerization in the presence of the only chymotrypsin.
All measurements were repeated as triplicate, and the error was calculated as the mean standard error of the three measurements. The error associated with the parameter kcat/Km was propagated in agreement with the following equation eq 1 [drawing 1]
Series [3] addresses human cyclophilin A (CypA) (human) (UniProt P62937).

The source of these data is article PMC9926490, “Structural Basis for Cyclosporin Isoform-Specific Inhibition of Cyclophilins from Toxoplasma gondii” (ACS Infectious Diseases, 2023).

Chain of human cyclophilin A (CypA) (human) (P62937 whole entry): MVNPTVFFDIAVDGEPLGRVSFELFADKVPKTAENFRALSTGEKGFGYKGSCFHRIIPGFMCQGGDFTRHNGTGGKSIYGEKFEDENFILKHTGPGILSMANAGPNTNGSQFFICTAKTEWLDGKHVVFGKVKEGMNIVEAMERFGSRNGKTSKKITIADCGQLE

For the substance CypA (Homo sapiens), in series [1], the Km came out at 661 ± 93 µM, the kcat came to 3290 s⁻¹ and the kcat/Km amounted to 4.9e+06 M⁻¹ s⁻¹.

On to “TgCyp18.4 (TgCyp289250), cyclophilin from Toxoplasma gondii (enzyme)”, for which the stoichiometry N with cyclosporin A (CsA) came to 1.

In turn, “TgCyp23 (TgCyp285760), cyclophilin from Toxoplasma gondii (enzyme)” returned a stoichiometry N with cyclosporin A (CsA) of 1.

TgCyp23 (Toxoplasma gondii VEG): in series [2], the Km turned out to be 530 ± 97 µM, the kcat was 2010 ± 381 s⁻¹ and the kcat/Km amounted to 3.8e+06 ± 200000 M⁻¹ s⁻¹.

On to cyclosporin A (CsA) (peptide), for which the IC50 of CsA on PPIase activity (7 nM enzyme, AAPF substrate, chymotrypsin-coupled assay, 0-30 nM CsA) in series [3] came out at 1 nM.
